Experimental data reported in publication PMC11497264 (2024).
Bridge positions count the residues as written; N and C are the ends.

Legend:
[1] = target: T1, human glucose-regulated protein GRP78 (human, UniProt P11021 19-654); assay: SPR; two-state model, kd1
[2] = target: T1, human glucose-regulated protein GRP78; assay: SPR; two-state reaction model
[3] = target: T1, human glucose-regulated protein GRP78; assay: SPR
[4] = target: T1, human glucose-regulated protein GRP78; assay: SPR; remark: listed apart in the source

T1 sequence (P11021 19-654): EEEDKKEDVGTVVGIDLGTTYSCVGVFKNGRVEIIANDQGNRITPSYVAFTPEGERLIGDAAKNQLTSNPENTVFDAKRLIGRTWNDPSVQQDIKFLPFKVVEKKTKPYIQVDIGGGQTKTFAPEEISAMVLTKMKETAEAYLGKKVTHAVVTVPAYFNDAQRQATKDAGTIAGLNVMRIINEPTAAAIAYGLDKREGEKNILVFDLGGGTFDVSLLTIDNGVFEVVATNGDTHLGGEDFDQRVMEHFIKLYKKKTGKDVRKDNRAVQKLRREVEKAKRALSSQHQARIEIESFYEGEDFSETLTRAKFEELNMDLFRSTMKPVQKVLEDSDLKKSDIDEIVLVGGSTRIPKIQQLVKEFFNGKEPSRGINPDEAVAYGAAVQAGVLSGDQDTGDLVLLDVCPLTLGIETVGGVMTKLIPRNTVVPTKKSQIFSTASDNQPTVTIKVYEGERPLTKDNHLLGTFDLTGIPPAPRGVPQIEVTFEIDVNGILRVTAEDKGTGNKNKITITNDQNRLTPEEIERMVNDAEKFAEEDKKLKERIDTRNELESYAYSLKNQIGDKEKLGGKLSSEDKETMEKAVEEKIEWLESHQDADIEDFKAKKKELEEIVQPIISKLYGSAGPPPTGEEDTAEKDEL

B1: Pep42, 13-mer cyclopeptide (peptide)
peptide: H-CTVALPGGYVRVC-NH2
modifications: disulfide 1-13
SMILES: CC(C)C[C@@H]1NC(=O)[C@H](C)NC(=O)[C@H](C(C)C)NC(=O)[C@H]([C@@H](C)O)NC(=O)[C@@H](N)CSSC[C@@H](C(N)=O)NC(=O)[C@H](C(C)C)NC(=O)[C@H](CCCNC(=N)N)NC(=O)[C@H](C(C)C)NC(=O)[C@H](Cc2ccc(O)cc2)NC(=O)CNC(=O)CNC(=O)[C@@H]2CCCN2C1=O
B1 showed a koff [1] of 0.678 s⁻¹ and a Kd [2] of 3430 µM.

B2: LCP W, loop-derived cyclic peptide based on spike residues 480-488 of the Wuhan strain (peptide)
peptide: H-CNGVEGFNC-NH2
modifications: disulfide 1-9
SMILES: CC(C)[C@@H]1NC(=O)CNC(=O)[C@H](CC(N)=O)NC(=O)[C@@H](N)CSSC[C@@H](C(N)=O)NC(=O)[C@H](CC(N)=O)NC(=O)[C@H](Cc2ccccc2)NC(=O)CNC(=O)[C@H](CCC(=O)O)NC1=O
With B2 the koff [3] was 0.43 s⁻¹ and the Kd [4] was 259 µM.
